Data set [1] addresses T1, I-SceI homing endonuclease (expressed in yeast from GAL1-10 promoter) (UniProt P03882 P03882:1-235).
T1 sequence: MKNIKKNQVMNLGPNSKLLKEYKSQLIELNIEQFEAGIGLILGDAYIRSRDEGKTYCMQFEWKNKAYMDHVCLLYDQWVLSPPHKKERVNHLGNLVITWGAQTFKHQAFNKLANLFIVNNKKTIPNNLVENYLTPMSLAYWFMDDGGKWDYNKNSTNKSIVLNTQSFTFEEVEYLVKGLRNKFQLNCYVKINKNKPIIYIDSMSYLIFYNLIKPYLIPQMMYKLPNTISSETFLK
Put plainly: cell_activity; gene correction over P1-r-P2.TRP5.40; I-SceI induced before transformation. The protocol:
Briefly, 50 ml of yeast extract-peptone-lactic acid (YPLac) (lactic acid 2%), pH 5.8, or yeast extract-peptone-dextrose (YPD) liquid culture was inoculated about 24 h before transformation and incubated with vigorous shaking at 30° C. YPLac was used as a neutral carbon source so as not to induce I-SceI expression until plating the transformations to selective galactose-containing media. YPD was used to repress I-SceI expression until plating the transformations to selective glucose-containing media. Transformations were done with 1 nmol of total oligonucleotide DNA, with the exception of the PAGE-purified oligonucleotides in which transformations were done with 500 pmol of total oligonucleotide DNA. For the transformations testing to determine whether the aptamer was working in trans, two oligonucleotides were used, 500 pmol of each oligonucleotide, such that the combined total oligonucleotide DNA used was 1 nmol. Sequences of oligonucleotides used for repair can be found in Table 1. Cells from each transformation were diluted appropriately and plated to synthetic complete medium lacking the respective amino acid and containing 2% galactose for I-SceI induction, 2 or 0.2% galactose for HO induction or 2% glucose for I-SceI or HO repression. […] Viability after transformation was calculated by plating to glucose-containing synthetic complete medium. […]

The target in data set [2] is T2, I-SceI homing endonuclease (expressed in HEK-293 from pSce) (UniProt P03882 P03882:1-235).
T2 sequence: T1 sequence
Put plainly: cell_activity; RFP+ over C.Red.40, flow cytometry. As to the method:
(§1) Protocols, 1:1412-1428 (2006)) 24 h before transfection. For transfections in HEK-293 cells, the plasmid DNA was used in the amount of 0.5 μg for the expression vector, as well as 0.5 μg for the targeted vector, and the repairing DNA oligonucleotide used was 1 μg, unless otherwise indicated. For the transfections with I-SceI digested pLDSLm, 0.5 m g of the linearized pLDSLm vector was used with 1 m g of repairing DNA oligonucleotide. Digestion of the pLDSLm vector was done using I-SceI (New England Biolabs, Ipswich, Mass., USA). Ten micrograms of plasmid pLDSLm was digested using 15 U I-SceI, 250 ng bovine serum albumin (BSA), 10×I-SceI buffer (New England Biolabs, Ipswich, Mass., USA) and water to a final volume of 50 μl. Digestions were done overnight at 37° C. In all transfection experiments, the oligonucleotides and the plasmid were diluted in DMEM without supplements, and then PEI was added, the solution was vortexed and added to the wells 10-15 min later. Red fluorescent cells were visualized by fluorescent microscopy using a Zeiss Observer A1 microscope and an AxioCam MRm camera (Zeiss, Thornwood, N.Y., USA). […] For certain transfections, wells of 24-well plates were seeded with 150,000 cells (on the day before transfection) and 5-8 days after transfection individual fluorescent cells per well were counted using a fluorescence microscope just before flow cytometry analysis. […]
For orientation: In flow cytometry, cells or beads pass a laser one at a time.

For data set [3], the target named is T2, I-SceI homing endonuclease (expressed …). Put plainly: cell_activity; RFP+ over C.Red.30, hand counts (4-fold by flow cytometry). As to the method:
as §1

B1: P1-A7-P2.TRP5.40 (ssDNA)
DNA: CTTCTGCCCGCCTCCTTCCGCGGGCGCTGTTGACAGCGGTCAGGTGGATGGGATGGACGAGATAGGCGGACACTGGTTTTGATGAAGCTGTCGCGGATCCCACATTCTGGGAAG
On to B1, for which the activity in data set [1] stood at 1.25 fold.

B2: A7.Red.40 (ssDNA)
DNA: GCGGGCGCTGTTGACAGCGGTCAGGTGGATGGGATGTGACCCAGGACTCCTCCCTGCAGGACGGCTGCTTCATCTA
The molecule B2 returned an activity in data set [2] of 6 fold.

B3: A7.Red.30 (ssDNA)
DNA: GCGGGCGCTGTTGACAGCGGTCAGGTGGATGGGATGCAGGACTCCTCCCTGCAGGACGGCTGCTTC
As for B3, in data set [3], the activity was 16 fold.

The values above are taken from patent US20160032292, “Aptamer-Guided Gene Targeting” (Georgia Tech Research Corporation, published 2016).
